T1: P113 N-terminal fragment (P. falciparum 3D7), purified soluble analyte (Plasmodium falciparum 3D7, stabilised)
T1 chain: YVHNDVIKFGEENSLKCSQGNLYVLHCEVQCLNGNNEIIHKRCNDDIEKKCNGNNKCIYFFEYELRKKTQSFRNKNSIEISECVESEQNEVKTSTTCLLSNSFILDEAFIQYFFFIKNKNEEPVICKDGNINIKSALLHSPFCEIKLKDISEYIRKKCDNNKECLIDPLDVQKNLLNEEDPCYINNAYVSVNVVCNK


Legend:
[1] = biological target: P113 N-terminal fragment D106K E107K, biotinylated bait (Plasmodium falciparum (3D7 strain)) (UniProt Q8ILP3); experiment: SPR
[2] = biological target: T1, P113 N-terminal fragment (P. falciparum …); experiment: SPR

purified monomeric RH5 protein, sequence (Q8IFM5 25-526): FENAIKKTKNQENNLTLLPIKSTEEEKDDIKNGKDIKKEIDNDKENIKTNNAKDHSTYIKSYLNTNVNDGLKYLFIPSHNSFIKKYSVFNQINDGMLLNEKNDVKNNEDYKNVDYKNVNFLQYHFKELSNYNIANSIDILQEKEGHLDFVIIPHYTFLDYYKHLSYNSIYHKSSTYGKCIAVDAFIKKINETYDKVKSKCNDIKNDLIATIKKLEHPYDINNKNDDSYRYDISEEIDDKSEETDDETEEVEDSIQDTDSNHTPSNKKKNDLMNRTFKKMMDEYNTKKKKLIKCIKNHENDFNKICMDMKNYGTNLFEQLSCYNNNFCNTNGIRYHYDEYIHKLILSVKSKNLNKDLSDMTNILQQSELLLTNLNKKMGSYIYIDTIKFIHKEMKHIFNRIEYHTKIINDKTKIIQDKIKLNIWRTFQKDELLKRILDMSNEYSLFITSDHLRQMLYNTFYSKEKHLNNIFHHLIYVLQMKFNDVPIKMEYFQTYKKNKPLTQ

Row | Molecule | fold reduction in dissociation half-life against wild-type P113 [1] [fold] | Kd [2] [nM]
1 | purified monomeric RH5 protein (from UniProt Q8IFM5 25-526) (natural protein) | 2 | 
2 | anti-P113 monoclonal antibody P3.2 (antibody, V domains shown) VH: QVQLQQPGAELVKPGASVRLSCKASGYTFTSYFMYWVRQRPGQGLQSIGGINPNNGGSNFNERFKTKATLTVDKSSSIAYLQLNSLTSEDSAVYYCTRRGLGYDYGGFAYWGQGTLVTVSA VL: DIQMTQTTSSLSASLGDRVTISCRASQDISNYLNWYQQKPDGTVKLLIYYTSRLHSGVSSRFSGSGSGTDYSLTIKNLEQEDIATYFCQQVNALPPTFGGGTKLEIK |  | 320
